Target: Acyl-CoA dehydrogenase from Mycobacterium thermoresistibile (Mycobacterium thermoresistibile)
Experiment: crystal structure

“Acyl-CoA dehydrogenase from Mycobacterium thermoresistibile (enzyme)” gave a stoichiometry N of 4.

Reference: publication PMC3123459
